Publication PMC2847151 (Neurogenetics, 2009)
Numbering of substitutions follows the chain as printed. Names and notes keep the numbering of the source.

B1: wildtype: wild-type MED25 protein (ARC92/ACID1); also as GAL4 fusion, full-length clone (1–754) (protein, UniProt Q71SY5 1-747, looked up)
chain: MVPGSEGPARAGSVVADVVFVIEGTANLGPYFEGLRKHYLLPAIEYFNGGPPAETDFGGDYGGTQYSLVVFNTVDCAPESYVQCHAPTSSAYEFVTWLDGIKFMGGGGESCSLIAEGLSTALQLFDDFKKMREQIGQTHRVCLLICNSPPYLLPAVESTTYSGCTTENLVQQIGERGIHFSIVSPRKLPALRLLFEKAAPPALLEPLQPPTDVSQDPRHMVLVRGLVLPVGGGSAPGPLQSKQPVPLPPAAPSGATLSAAPQQPLPPVPPQYQVPGNLSAAQVAAQNAVEAAKNQKAGLGPRFSPITPLQQAAPGVGPPFSQAPAPQLPPGPPGAPKPPPASQPSLVSTVAPGSGLAPTAQPGAPSMAGTVAPGGVSGPSPAQLGAPALGGQQSVSNKLLAWSGVLEWQEKPKPASVDANTKLTRSLPCQVYVNHGENLKTEQWPQKLIMQLIPQQLLTTLGPLFRNSRMVQFHFTNKDLESLKGLYRIMGNGFAGCVHFPHTAPCEVRVLMLLYSSKKKIFMGLIPYDQSGFVNGIRQVITNHKQVQQQKLEQQQRGMGGQQAPPGLGPILEDQARPSQNLLQLRPPQPQPQGTVGASGATGQPQPQGTAQPPPGAPQGPPGAASGPPPPGPILRPQNPGANPQLRSLLLNPPPPQTGVPPPQASLHHLQPPGAPALLPPPHQGLGQPQLGPPLLHPPPAQSWPAQLPPRAPLPGQMLLSGGPRGPVPQPGLQPSVMEDDILMDLI
modifications: full-length also GAL4 fusion
B2: mutant MED25: MED25 protein carrying the p.A335V mutation; also as GAL4 fusion, full-length clone (1–754) (protein, UniProt Q71SY5 1-747, looked up, variant A335V)
chain: B1 chain with A335V
modifications: full-length also GAL4 fusion

Test system: Mediator
Experiment: Binding to Mediator upon transfection into HeLa cells
Details: wild-type vs mutant

Molecule	binding to Mediator
B1	bound indistinguishably to Mediator
B2	bound indistinguishably to Mediator
